From patent US20240174727A1, “LONG-ACTING NATRIURETIC PEPTIDES AND USES THEREOF” (Eli Lilly and Company, priority 2022, published 2024)

T1: human NPRA (human, UniProt P16066 33-1061)
T1 sequence (looked up): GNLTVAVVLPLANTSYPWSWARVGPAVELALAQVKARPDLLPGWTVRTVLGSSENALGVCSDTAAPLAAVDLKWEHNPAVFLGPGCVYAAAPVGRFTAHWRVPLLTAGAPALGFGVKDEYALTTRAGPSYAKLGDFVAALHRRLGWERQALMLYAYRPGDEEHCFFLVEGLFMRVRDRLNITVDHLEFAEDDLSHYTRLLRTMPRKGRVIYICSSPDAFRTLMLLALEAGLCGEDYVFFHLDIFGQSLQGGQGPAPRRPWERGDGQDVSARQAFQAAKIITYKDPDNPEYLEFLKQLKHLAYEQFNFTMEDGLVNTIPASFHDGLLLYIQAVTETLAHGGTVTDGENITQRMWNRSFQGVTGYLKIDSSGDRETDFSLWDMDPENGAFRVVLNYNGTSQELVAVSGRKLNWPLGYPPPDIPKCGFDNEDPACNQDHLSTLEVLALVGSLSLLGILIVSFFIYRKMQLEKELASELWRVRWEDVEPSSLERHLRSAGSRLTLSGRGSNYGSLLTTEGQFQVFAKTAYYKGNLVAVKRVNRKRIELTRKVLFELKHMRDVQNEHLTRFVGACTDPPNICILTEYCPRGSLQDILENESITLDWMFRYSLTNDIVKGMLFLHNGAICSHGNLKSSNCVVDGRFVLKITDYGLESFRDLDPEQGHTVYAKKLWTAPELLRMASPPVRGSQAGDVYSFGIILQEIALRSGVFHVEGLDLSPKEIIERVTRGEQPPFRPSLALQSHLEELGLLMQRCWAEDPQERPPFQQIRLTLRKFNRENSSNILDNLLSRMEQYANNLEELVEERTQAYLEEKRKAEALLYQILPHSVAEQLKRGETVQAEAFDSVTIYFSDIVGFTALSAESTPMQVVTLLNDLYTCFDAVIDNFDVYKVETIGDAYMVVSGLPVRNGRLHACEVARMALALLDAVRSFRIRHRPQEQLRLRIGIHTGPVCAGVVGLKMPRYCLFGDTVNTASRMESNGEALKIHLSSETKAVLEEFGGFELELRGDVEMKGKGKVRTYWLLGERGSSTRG


Target: T1, human NPRA
Experiment: cell-based or functional assay

| Binder | cGMP Assay (EC50, pM) w/Casein [pM] |
| --- | --- |
| XEKEKEKGSXRRSSCFGGRIDRIGAQSGLGCPSFRXGGPSSGAPPPS (HOOC-(CH2)18-CO-(γGlu)-EKEKEKGS-4Pal-RRSS[CFGGRIDRIGAQSGLGC]PSFR-4Pal-GGPSSGAPPPS-NH2; disulfide linkage between the bracketed Cys) [Example 23] | 3490 |
| XEKEKEKGSXRRSSCFGGKIDRIGHQSGLGCPSFRHGGPSSGAPPPS (HOOC-(CH2)18-CO-(γGlu)-EKEKEKGS-4Pal-RRSS[CFGGKIDRIGHQSGLGC]PSFRHGGPSSGAPPPS-NH2; disulfide linkage between the bracketed Cys) [Example 36] | 118 |
| XEKEKEKGSXKRSSCFGGRIDRIGHQSGLGCPSFRHGGPSSGAPPPS (HOOC-(CH2)18-CO-(γGlu)-EKEKEKGS-4Pal-KRSS[CFGGRIDRIGHQSGLGC]PSFRHGGPSSGAPPPS-NH2; disulfide linkage between the bracketed Cys) [Example 35] | 118 |
